The values below come from patent US20100104603A1 (published 2010).

Ends that are not written are not given here.

The target of experiment [1] is T1, Staphylococcal superantigen-like protein 5 (SSL5) of S. aureus strain NTCT 8325, recombinant (Staphylococcus aureus strain NTCT 8325, UniProt A0A0H3K6Z6 31-234).
T1 sequence: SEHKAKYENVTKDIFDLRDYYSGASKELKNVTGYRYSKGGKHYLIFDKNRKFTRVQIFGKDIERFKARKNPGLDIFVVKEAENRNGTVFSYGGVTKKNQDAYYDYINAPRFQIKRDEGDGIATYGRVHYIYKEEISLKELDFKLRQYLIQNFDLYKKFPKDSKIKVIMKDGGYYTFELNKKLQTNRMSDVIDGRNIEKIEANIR

In the next experiment the target is T2, IL-8 (UniProt P10145 28-99).
T2 construct: also called biotin-labeled IL-8
T2 sequence: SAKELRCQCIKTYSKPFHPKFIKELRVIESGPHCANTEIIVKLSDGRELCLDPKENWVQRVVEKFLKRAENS
The experiment in a line: ELISA: IL-8-coated wells, PSGL-1/Ig without SSL5. (In general: ELISA stands for enzyme-linked immunosorbent assay.)

B1: recombinant human PSGL-1-Fc construct (PSGL-1/Ig fusion protein) (Fc fusion)
chain: QATEYEYLDYDFLPETEPPEMLRNSTDTTPLTGPGTPESTTVEPAAR
modifications: ends and bridges not checked; also: fused to Ig Fc part
notes: also called rPSGL/Ig; not shown: Ig/Fc part
As usually defined, the Kd is the concentration at which binding is half-saturated. Take B1: in experiment [1], the Kd stood at 820 nM. Besides, the binding result with IL-8 is recorded as “no binding (tested: 1 µg/ml)”.
